Test results: the supplement of paper PMC10567573

B1: DCAF4 (parent)
chain: PGIDRPGMLCSFRIPGAWSCAWSL

Variants of: B1
Assay: protein stability index of a GFP-peptide fusion (GPS, HEK-293T) (PSI 1-6); higher = more stable
Conditions: c terminus: a fixed tail appended
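Also: lentivirally expressed fusions sorted by FACS into six bins by GFP to DsRed ratio, PSI derived from sequencing read proportions per bin multiplied by bin number.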

Protein stability index of substitutions, site by site:
A21: G 3.7; M 2.96; P 2.54; Y 4.31; R 2.22; N 2.85; S 2.99; T 2.69; V 1.91; C 2.48; F 2.37; W 2.83; D 3.1; K 3.64; L 2.32
P6: H 2.66; G 3.28; K 2.83; M 4.05; N 2.76; T 2.65; C 2.65; F 3.41; E 1.44; Y 3.44; R 3.89; S 2.83; V 2.93; Q 3.62
C10: W 3.64; G 2.12; A 1.68; H 3.98; M 3.1; K 2.77; F 3.57; I 3.54; Q 1.58; E 2.82; N 2.65
R5: G 2.74; F 3.57; K 2.04; Y 2.76; L 2.46; V 1.94; Q 3.37; C 2.89; N 3.74; I 1.87; P 2.75; D 3.46
G16: K 3.56; N 2.91; V 2.81; C 2.39; D 2.18; I 3.24; P 3.49; H 4.24; T 3.2; S 3.06; Y 2.84; E 3.31; R 2.68; F 2.83
C20: M 3.55; W 3.93; E 1.7; H 2.41; T 2.61; P 3.17; L 3.41; Q 1.56; R 1.52; I 2.77; N 2.15; V 2.58; G 2.95; S 3.33; K 1.81; F 4.57; D 2.11
I14: K 1.68; N 1.5; E 1.76; H 2.46; W 2.12; S 2.65; Q 2.64; L 2.47; G 1.54; R 3.12; F 2.32; M 1.82; C 1.79; A 1.77
A17: C 2.26; L 2.79; I 2.79; R 3; N 2.48; G 3.29; E 3.28; T 1.77; Q 2.13; S 4.12; F 2.16; D 3.01; Y 2.95; P 1.61
S19: L 2.61; V 1.55; E 2.19; K 4.35; D 2.11; Q 2.74; Y 3.36; T 2.96; G 2.78; W 4.15; M 2.51; R 3.46; I 2.23; H 1.6
D4: P 2.56; F 2.74; N 2.05; W 2.65; I 3.29; Q 2.42; Y 2.27; M 1.91; E 2.38
M8: G 3.31; E 2.42; Y 1.56; H 2.83; T 3.54; R 1.99; S 3.62; A 2.31; N 2.11; I 3; L 3.01; C 2.66; K 2.34
W18: K 2.9; R 3.25; Y 3.06; M 2.71; G 2.18; P 2.33; D 1.76; A 3.12; H 2.73; Q 2.21; L 2.87; E 1.68; V 3.98; C 2.32; N 2.54; T 2.63; S 2.36
L24: Q 1.31; Y 1.96; N 2.87; S 2.15; T 3.74; F 3.21; D 2.85; K 2.42; A 3.62; P 2.03; H 2.96; V 2.71; R 1.47; W 3.59; E 1.38; I 2.42
P15: I 2.28; V 1.8; L 2.04; S 2.74; C 2.96; Q 4.94; M 2.89; H 3.44; F 3.83; N 2.56
L9: T 1.7; D 3.26; S 2.32; R 3.61; E 2.62; V 2.85; I 3.09; Q 1.76; P 2.5; H 2.92; G 1.77; K 3.08; F 2.7; W 2.82; Y 2.31
G2: P 1.94; H 3.15; D 3.96; T 2.59; F 1.6; V 1.85; Q 2.39; W 1.83; K 2.19; C 3.1; M 3.72; I 2.26; R 3.78; Y 3
S23: P 2.55; A 2.91; Q 3.24; I 1.75; E 3.03; K 2.47; D 2.39; W 2.88; G 3.64; Y 3.52; V 2.27; L 3.01; C 1.89; T 2.5; F 2
F12: K 1.79; H 2.68; D 2.19; V 3.38; C 3.41; G 2.29; N 2.87; Q 2.67; E 2.5; I 2.26; P 3.71; W 4.14; S 2.7; T 2.12
W22: V 1.44; T 1.95; H 1.74; G 1.95; C 1.62; Q 3.24; R 2.27; E 2.01; I 3.25; S 1.33; K 1.84; F 2.7; L 2.58; P 1.19; M 3.58; N 1.6; A 2.54
S11: F 3.19; G 3.07; K 2.81; R 3.98; E 2.68; L 2.81; M 2.95; D 2.44; Q 2.82; H 3.42; T 1.56; A 3.01; C 2.19; Y 3.16; V 1.85
I3: V 2.56; D 1.96; S 2.97; W 3.75; Q 3.25; N 4.44; A 2.91; E 4.15; K 2.3; F 2.26; P 2.33; G 1.51; M 2.5; T 2.93; H 2.39
R13: D 1.97; P 3.03; I 3.22; H 2.34; S 2.59; E 3.65; L 3.69; F 2.68; Y 2.9; G 2.33; V 2.94
P1: M 3.39; T 3.59; S 3.17; H 2.96; R 2.46; Y 3.48; C 2.36; K 1.96; A 1.93; D 2.31; G 3.67; Q 3.03; L 3.17
G7: I 3.13; T 3.46; Q 2.63; K 2.7; S 3.09; D 2.11; A 2.7; H 2.09; F 4.52; R 2.05; M 2.31; P 2.83; N 2.67; W 2.23; Y 2.28
